Measurements reported in paper PMC3155616 (Cell, 2011).

Molecular target: E. coli SSB (wild type single-stranded DNA binding protein, homotetramer) (E. coli, UniProt P0AGE0 1-178)
Test: ITC

E. coli SSB (wild type single-stranded DNA binding protein, homotetramer), sequence (P0AGE0 whole entry): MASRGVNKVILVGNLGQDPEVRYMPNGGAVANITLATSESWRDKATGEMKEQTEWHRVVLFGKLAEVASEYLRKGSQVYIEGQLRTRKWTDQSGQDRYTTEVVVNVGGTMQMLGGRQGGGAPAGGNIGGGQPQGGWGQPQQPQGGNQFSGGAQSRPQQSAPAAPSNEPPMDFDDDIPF

B1: E. coli RecO protein (natural protein, UniProt P0A7H3 1-242, looked up)
chain: MEGWQRAFVLHSRPWSETSLMLDVFTEESGRVRLVAKGARSKRSTLKGALQPFTPLLLRFGGRGEVKTLRSAEAVSLALPLSGITLYSGLYINELLSRVLEYETRFSELFFDYLHCIQSLAGVTGTPEPALRRFELALLGHLGYGVNFTHCAGSGEPVDDTMTYRYREEKGFIASVVIDNKTFTGRQLKALNAREFPDADTLRAAKRFTRMALKPYLGGKPLKSRELFRQFMPKRTVKTHYE
B1 was tested, and the “stoichiometry N” value was 1 RecO per SSB C-terminal tail (four tails per tetramer).
